T1: human FcγRIIb (human, UniProt P31994 43-217, limits assumed)
T1 construct: also called FcγIIB
T1 sequence: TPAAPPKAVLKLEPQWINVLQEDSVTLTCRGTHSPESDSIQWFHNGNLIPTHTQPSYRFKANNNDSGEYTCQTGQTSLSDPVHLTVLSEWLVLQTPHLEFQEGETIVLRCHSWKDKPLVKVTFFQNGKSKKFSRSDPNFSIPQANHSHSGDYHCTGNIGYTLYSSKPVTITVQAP

T2: human FcγRIIa type R (human, UniProt P12318 36-217)
T2 construct: also called FcγRIIaR; FcγRIIa(R)
T2 chain: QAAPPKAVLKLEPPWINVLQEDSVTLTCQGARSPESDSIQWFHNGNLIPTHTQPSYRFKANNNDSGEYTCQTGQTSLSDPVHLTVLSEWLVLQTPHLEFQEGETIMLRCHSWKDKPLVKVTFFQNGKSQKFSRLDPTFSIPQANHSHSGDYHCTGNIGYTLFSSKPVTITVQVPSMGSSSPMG

T3: FcγRIIb (human, UniProt P31994 43-217, limits assumed)
T3 construct: also called FcgRIIb; FcγIIB
T3 sequence: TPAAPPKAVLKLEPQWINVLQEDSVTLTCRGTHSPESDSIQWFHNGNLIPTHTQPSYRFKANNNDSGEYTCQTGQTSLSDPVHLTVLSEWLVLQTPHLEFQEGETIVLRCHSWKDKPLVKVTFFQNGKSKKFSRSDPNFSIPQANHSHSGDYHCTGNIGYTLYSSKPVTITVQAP

T4: FcγRIIa type H (human, UniProt P12318 36-217)
T4 construct: also called FcγRIIaH; FcγRIIH
T4 sequence: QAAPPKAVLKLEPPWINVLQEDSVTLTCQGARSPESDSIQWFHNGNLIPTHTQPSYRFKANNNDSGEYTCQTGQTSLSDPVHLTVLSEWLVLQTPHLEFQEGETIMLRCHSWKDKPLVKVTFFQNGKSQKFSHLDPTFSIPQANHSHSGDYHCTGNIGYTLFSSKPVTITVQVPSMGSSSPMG

T5: FcγRIIa type R (human, UniProt P12318 36-217)
T5 construct: also called FcγRIIaR; FcgRIIaR
T5 chain: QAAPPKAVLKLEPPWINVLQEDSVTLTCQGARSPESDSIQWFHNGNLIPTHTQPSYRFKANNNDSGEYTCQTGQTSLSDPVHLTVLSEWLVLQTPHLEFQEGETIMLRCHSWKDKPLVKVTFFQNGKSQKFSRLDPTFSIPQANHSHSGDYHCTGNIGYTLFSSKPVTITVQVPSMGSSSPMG


Legend:
[1] = target: T1, human FcγRIIb; assay: SPR (Biacore); ratio against parent IL6R-F11/IL6R-L
[2] = target: T1, human FcγRIIb; assay: SPR (Biacore); KD for FcγRIIaH divided by KD for FcγRIIb of the same antibody
[3] = target: T6, human FcγRIa (human, UniProt P12314 16-292, limits assumed); assay: SPR (Biacore), antibody captured, FcγR as analyte
T6 construct: also called CD64

[4] = target: T1, human FcγRIIb; assay: SPR (Biacore), antibody captured, FcγR as analyte
[5] = target: T2, human FcγRIIa type R; assay: SPR (Biacore), antibody captured, FcγR as analyte
[6] = target: T1, human FcγRIIb; assay: SPR (Biacore), binding amount relative to IL6R-F652/IL6R-L = 100
[7] = target: T2, human FcγRIIa type R; assay: as above
[8] = target: T1, human FcγRIIb; assay: SPR (Biacore); KD for FcγRIIaR divided by KD for FcγRIIb of the same antibody
[9] = target: T3, FcγRIIb; assay: as above
[10] = target: T3, FcγRIIb; assay: SPR (Biacore); KD for FcγRIIaH divided by KD for FcγRIIb of the same antibody
Description: Furthermore, KD(IIaR)/KD(IIb) and KD(IIaH)/KD(IIb) in the table respectively represent the value obtained by dividing the KD value of each variant for FcγRIIaR by the KD value of each variant for FcγRIIb, and the value obtained by dividing the KD value of each variant for FcγRIIaH by the KD value of each variant for FcγRIIb.

[11] = target: T4, FcγRIIa type H; assay: SPR (Biacore), FcγR over captured antibody
[12] = target: T7, FcγRIIIa type V (human, UniProt P08637 17-208, limits assumed); assay: SPR (Biacore), FcγR over captured antibody
T7 construct: also called FcγRIIIaV; FcgRIIIaV

[13] = target: T3, FcγRIIb; assay: SPR (Biacore), FcγR over captured antibody
[14] = target: T5, FcγRIIa type R; assay: SPR (Biacore), FcγR over captured antibody
[15] = target: T8, FcγRIa (human, UniProt P12314 16-292, limits assumed); assay: SPR (Biacore), FcγR over captured antibody
T8 construct: also called FcgRIa; CD64

[16] = target: T3, FcγRIIb; assay: SPR (Biacore), KD of IL6R-B3/IL6R-L divided by KD of the variant
Description: Furthermore, KD(IIaR)/KD(IIb) and KD(IIaH)/KD(IIb) in the table respectively represent the value obtained by dividing the KD value of each variant for FcγRIIaR by the KD value of each variant for FcγRIIb, and the value obtained by dividing the KD value of each variant for FcγRIIaH by the KD value of each variant for FcγRIIb. KD(IIb) of the parent polypeptide/KD(IIb) of the altered polypeptide refers to the value obtained by dividing the KD value of the parent polypeptide for FcγRIIb by the KD value of each variant for FcγRIIb.

T8 sequence (P12314 16-292 limits assumed): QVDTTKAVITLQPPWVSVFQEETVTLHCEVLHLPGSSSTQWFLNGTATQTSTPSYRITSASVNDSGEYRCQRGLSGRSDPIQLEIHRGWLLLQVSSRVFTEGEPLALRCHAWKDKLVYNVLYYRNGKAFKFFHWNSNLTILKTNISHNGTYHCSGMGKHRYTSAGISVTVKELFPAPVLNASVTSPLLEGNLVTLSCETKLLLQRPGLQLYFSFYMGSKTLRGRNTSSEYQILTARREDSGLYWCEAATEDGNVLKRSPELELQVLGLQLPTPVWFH
T7 sequence (P08637 other isoform, or with tags, fused parts or gaps limits assumed): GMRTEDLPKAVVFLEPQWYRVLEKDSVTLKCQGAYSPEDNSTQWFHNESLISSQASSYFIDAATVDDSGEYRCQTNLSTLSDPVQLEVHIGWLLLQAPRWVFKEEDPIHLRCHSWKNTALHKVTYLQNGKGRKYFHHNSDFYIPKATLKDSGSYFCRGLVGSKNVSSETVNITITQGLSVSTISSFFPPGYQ
T6 sequence (P12314 16-292 limits assumed): as the sequence (P12314 16-292 limits assumed) above

| KD(IIb) of parent polypeptide/KD(IIb) of altered polypeptide [1] | KD(IIaH)/KD(IIb) [2] | Kd [3] [µM] | Kd [4] [µM] | Kd [5] [µM] | relative binding activity [6] | relative binding activity [7] | KD(IIaR)/KD(IIb) [8] | KD(IIaR)/KD(IIb) [9] | KD(IIaH)/KD(IIb) [10] | Kd [11] [µM] | Kd [12] [µM] | Kd [13] [µM] | Kd [14] [µM] | Kd [15] [µM] | KD(IIb) of the parent polypeptide/KD(IIb) of altered polypeptide [16] [fold] | Binder |
| --- | --- | --- | --- | --- | --- | --- | --- | --- | --- | --- | --- | --- | --- | --- | --- | --- |
| 5 | 14 | 0.0049 | 1.4 | 3.5 | 139 | 844 | 2.6 | – | – | – | – | – | – | – | – | IL6R-PD097/IL6R-L (antibody, human IgG1, Alteration introduced into IL6R-F11; also called P238D/S239D) heavy: QVQLQESGPGLVKPSETLSLTCAVSGHSISHDHAWSWVRQPPGEGLEWIGFISYSGITNYNPSLQGRVTISRDNSKNTLYLQMNSLRAEDTAVYYCARSLARTTAMDYWGEGTLVTVSSASTKGPSVFPLAPSSKSTSGGTAALGCLVKDYFPEPVTVSWNSGALTSGVHTFPAVLQSSGLYSLSSVVTVPSSSLGTQTYICNVNHKPSNTKVDKKVEPKSCDKTHTCPPCPAPELLGGDDVFLFPPKPKDTLYISRTPEVTCVVVDVSHEDPEVKFNWYVDGVEVHNAKTKPREEQYNSTYRVVSVLTVLHQDWLNGKEYKCKVSNKALPAPIEKTISKAKGQPREPQVYTLPPSRDELTKNQVSLTCLVKGFYPSDIAVEWESNGQPENNYKTTPPVLDSDGSFFLYSKLTVDKSRWQQGNVFSCSVMHEALHYHYTQKSLSLSP light: DIQMTQSPSSLSASVGDRVTITCRASQDISSYLNWYQQKPGKAPKLLIYYTSRLHSGVPSRFSGSGSGTDFTFTISSLQPEDIATYYCQQGNTLPYTFGQGTKVEIK |
| – | – | – | – | – | – | – | – | 15 | 31.8 | 34 | 57 | 1.1 | 16 | 0.0091 | 2.9 | IL6R-2B171/IL6R-L (antibody, human IgG1, IgG1; Fc variant of IL6R-B3; copies: 2 + 2) heavy: QVQLQESGPGLVKPSETLSLTCAVSGHSISHDHAWSWVRQPPGEGLEWIGFISYSGITNYNPSLQGRVTISRDNSKNTLYLQMNSLRAEDTAVYYCARSLARTTAMDYWGEGTLVTVSSASTKGPSVFPLAPSSKSTSGGTAALGCLVKDYFPEPVTVSWNSGALTSGVHTFPAVLQSSGLYSLSSVVTVPSSSLGTQTYICNVNHKPSNTKVDKKVEPKSCDKTHTCPPCPAPELLGGDSVFLFPPKPKDTLMISRTPEVTCVVVDVSHEDPEVKFNWYVDGVEVHNAKTKPREEQYNSTYRVVSVLTVLHQDWLNGKEYKCKLSNKALPAPIEKTISKAKGQPREPQVYTLPPSRDELTKNQVSLTCLVKGFYPSDIAVEWESNGQPENNYKTTPPVLDSDGSFFLYSKLTVDKSRWQQGNVFSCSVMHEALHNHYTQESLSLSP light: DIQMTQSPSSLSASVGDRVTITCRASQDISSYLNWYQQKPGKAPKLLIYYTSRLHSGVPSRFSGSGSGTDFTFTISSLQPEDIATYYCQQGNTLPYTFGQGTKVEIK |

More lines, now with the values behind:

| Binder | KD(IIb) of parent polypeptide/KD(IIb) of altered polypeptide [1] | KD(IIaH)/KD(IIb) [2] | Kd [3] [µM] | Kd [4] [µM] | Kd [5] [µM] | relative binding activity [6] | relative binding activity [7] | KD(IIaR)/KD(IIb) [8] | KD(IIaR)/KD(IIb) [9] | KD(IIaH)/KD(IIb) [10] | Kd [11] [µM] | Kd [12] [µM] | Kd [13] [µM] | Kd [14] [µM] | Kd [15] [µM] | KD(IIb) of the parent polypeptide/KD(IIb) of altered polypeptide [16] [fold] |
| --- | --- | --- | --- | --- | --- | --- | --- | --- | --- | --- | --- | --- | --- | --- | --- | --- |
| IL6R-BP103/IL6R-L (antibody, human IgG1, IgG1; Fc variant of IL6R-B3; copies: 2 + 2) heavy: QVQLQESGPGLVKPSETLSLTCAVSGHSISHDHAWSWVRQPPGEGLEWIGFISYSGITNYNPSLQGRVTISRDNSKNTLYLQMNSLRAEDTAVYYCARSLARTTAMDYWGEGTLVTVSSASTKGPSVFPLAPSSKSTSGGTAALGCLVKDYFPEPVTVSWNSGALTSGVHTFPAVLQSSGLYSLSSVVTVPSSSLGTQTYICNVNHKPSNTKVDKKVEPKSCDKTHTCPPCPAPELLGGDSVFLFPPKPKDTLMISRTPEVTCVVVDVVHEDPEVKFNWYVDGVEVHNAKTKPREEQYNSTYRVVSVLTVLHQDWLNGKEYKCKVSNKALPAPIEKTISKAKGQPREPQVYTLPPSRDELTKNQVSLTCLVKGFYPSDIAVEWESNGQPENNYKTTPPVLDSDGSFFLYSKLTVDKSRWQQGNVFSCSVMHEALHNHYTQESLSLSP light: DIQMTQSPSSLSASVGDRVTITCRASQDISSYLNWYQQKPGKAPKLLIYYTSRLHSGVPSRFSGSGSGTDFTFTISSLQPEDIATYYCQQGNTLPYTFGQGTKVEIK | – | – | – | – | – | – | – | – | 9 | 71.5 | 88 | 110 | 1.2 | 11 | 0.035 | 2.5 |
| IL6R-2B172/IL6R-L (antibody, human IgG1, IgG1; Fc variant of IL6R-B3; copies: 2 + 2) heavy: QVQLQESGPGLVKPSETLSLTCAVSGHSISHDHAWSWVRQPPGEGLEWIGFISYSGITNYNPSLQGRVTISRDNSKNTLYLQMNSLRAEDTAVYYCARSLARTTAMDYWGEGTLVTVSSASTKGPSVFPLAPSSKSTSGGTAALGCLVKDYFPEPVTVSWNSGALTSGVHTFPAVLQSSGLYSLSSVVTVPSSSLGTQTYICNVNHKPSNTKVDKKVEPKSCDKTHTCPPCPAPELLGGDSVFLFPPKPKDTLMISRTPEVTCVVVDVSHEDPEVKFNWYVDGVEVHNAKTKPREEQYNSTYRVVSVLTVLHQDWLNGKEYKCKMSNKALPAPIEKTISKAKGQPREPQVYTLPPSRDELTKNQVSLTCLVKGFYPSDIAVEWESNGQPENNYKTTPPVLDSDGSFFLYSKLTVDKSRWQQGNVFSCSVMHEALHNHYTQESLSLSP light: DIQMTQSPSSLSASVGDRVTITCRASQDISSYLNWYQQKPGKAPKLLIYYTSRLHSGVPSRFSGSGSGTDFTFTISSLQPEDIATYYCQQGNTLPYTFGQGTKVEIK | – | – | – | – | – | – | – | – | 8 | 27.3 | 21 | 48 | 0.77 | 6.1 | 0.003 | 4 |
| IL6R-BP102/IL6R-L (antibody, human IgG1, IgG1; Fc variant of IL6R-B3; copies: 2 + 2) heavy: QVQLQESGPGLVKPSETLSLTCAVSGHSISHDHAWSWVRQPPGEGLEWIGFISYSGITNYNPSLQGRVTISRDNSKNTLYLQMNSLRAEDTAVYYCARSLARTTAMDYWGEGTLVTVSSASTKGPSVFPLAPSSKSTSGGTAALGCLVKDYFPEPVTVSWNSGALTSGVHTFPAVLQSSGLYSLSSVVTVPSSSLGTQTYICNVNHKPSNTKVDKKVEPKSCDKTHTCPPCPAPELLGGDSVFLFPPKPKDTLMISRTPEVTCVVVDVQHEDPEVKFNWYVDGVEVHNAKTKPREEQYNSTYRVVSVLTVLHQDWLNGKEYKCKVSNKALPAPIEKTISKAKGQPREPQVYTLPPSRDELTKNQVSLTCLVKGFYPSDIAVEWESNGQPENNYKTTPPVLDSDGSFFLYSKLTVDKSRWQQGNVFSCSVMHEALHNHYTQESLSLSP light: DIQMTQSPSSLSASVGDRVTITCRASQDISSYLNWYQQKPGKAPKLLIYYTSRLHSGVPSRFSGSGSGTDFTFTISSLQPEDIATYYCQQGNTLPYTFGQGTKVEIK | – | – | – | – | – | – | – | – | 9.4 | 67.6 | 61 | 82 | 0.9 | 8.4 | 0.0082 | 3.4 |
| IL6R-BP100/IL6R-L (antibody, human IgG1, IgG1; Fc variant of IL6R-B3; copies: 2 + 2) heavy: QVQLQESGPGLVKPSETLSLTCAVSGHSISHDHAWSWVRQPPGEGLEWIGFISYSGITNYNPSLQGRVTISRDNSKNTLYLQMNSLRAEDTAVYYCARSLARTTAMDYWGEGTLVTVSSASTKGPSVFPLAPSSKSTSGGTAALGCLVKDYFPEPVTVSWNSGALTSGVHTFPAVLQSSGLYSLSSVVTVPSSSLGTQTYICNVNHKPSNTKVDKKVEPKSCDKTHTCPPCPAPELLGGDSVFLFPPKPKDTLMISRTPEVTCVVVDVAHEDPEVKFNWYVDGVEVHNAKTKPREEQYNSTYRVVSVLTVLHQDWLNGKEYKCKVSNKALPAPIEKTISKAKGQPREPQVYTLPPSRDELTKNQVSLTCLVKGFYPSDIAVEWESNGQPENNYKTTPPVLDSDGSFFLYSKLTVDKSRWQQGNVFSCSVMHEALHNHYTQESLSLSP light: DIQMTQSPSSLSASVGDRVTITCRASQDISSYLNWYQQKPGKAPKLLIYYTSRLHSGVPSRFSGSGSGTDFTFTISSLQPEDIATYYCQQGNTLPYTFGQGTKVEIK | – | – | – | – | – | – | – | – | 7.3 | 42.6 | 46 | 59 | 1.1 | 7.8 | 0.0011 | 2.9 |

— patent US20200199241A1 (Chugai, published 2020)
